Experimental data published in PMC11413788, “The heterobivalent (SSTR2/albumin) radioligand [^67Cu]Cu-NODAGA-cLAB4-TATE enables efficient somatostatin receptor radionuclide theranostics” (Theranostics, 2024).
Where two headings read alike, the source gives them in different places.

Assays:
MPC cells [1] = test: Uptake of radioligands in intact MPC cells (acid wash); format: cell-based, mouse; settings: 25 nmol/L; for Uptake fraction: non-acid-releasable fraction normalized to specifically bound radioligand
Description: Uptake of SSTR2 radioligands was measured and analyzed as previously described, with some modifications. In brief, radioligands were prepared at a molar activity of 25 MBq/nmol. […] Non-specific binding and uptake were measured in presence of 1 µmol/L acetyl-TATE. The uptake fraction of radioligands was measured after acid wash with Dulbecco's phosphate-buffered saline containing 0.9 mmol/L CaCl2, 0.5 mmol/L MgCl2, and 0.05 mol/L glycine, pH 2.8, for 5 min.

[2] = cited from earlier work
MPC cells [3] = format: cell-based, mouse; settings: relative loss normalized to initial SSTR2-specific binding
Description: MPC cells (2.25 × 10^5/well) were seeded into collagen coated CELLSTAR 48‑well microplates (Greiner Bio‑One, 67180) and grown for three days. Cell culture medium and washing buffer were pre-warmed at 37 °C, unless specified otherwise. Radioligands were prepared at a molar activity of 40 MBq/nmol. Cells were incubated with the radioligands at a final concentration of 2.5 nmol/L in 0.5 mL of cell culture medium for 1 hour at 37 °C. Non-specific binding was determined in presence of 1 µmol/L acetyl-TATE. Binding to plastic surfaces was determined in cell-free cavities. At the end of radioligand exposure, incubation medium was removed, and cells were washed three times with Dulbecco's phosphate-buffered saline containing 0.9 mmol/L CaCl2 and 0.5 mmol/L MgCl2. Cells were overlayed with 0.5 mL of radioligand-free medium and further incubated at 37 °C for a total duration of 24 hours. At specific sampling points (1, 2, 5, and 24 hours), supernatants were removed from all cavities. […] Activity of cell homogenates was measured using the gamma counter Wizard^2 2480 (PerkinElmer, Waltham, MA, USA). Release kinetics were analyzed by non-linear regression using the 'two phase decay' model implemented in Prism 10 (GraphPad Software) with the 'Top' and 'Bottom' parameters constrained at 100 %, and 0 %, respectively.

[4] = human
Description: Tissue-specific pharmacokinetic profiles of radioligands in mice were transformed into human time scale and organ masses using allometric scaling, and dose calculations were performed as reported elsewhere, with some modifications. In brief, projected cumulated activity in human organs was calculated by curve fitting as described above for investigations in mice. Calculations were performed separately for female and male subjects. Cumulated activity in the urinary bladder was determined assuming a voiding interval of four hours. Projected human doses were calculated for male and female subjects using the ICRP 89 Adult Female (60 kg) and ICRP 89 Adult Male (73 kg) models implemented in Olinda 2.2.3 (Hermes Medical Solutions AB).

[5] = Absorbed dose calculation in tumors and kidneys of MPC allograft mice; settings: mouse, in vivo
Description: (§1) Unless specified otherwise, all activity values are reported without decay correction. Time courses of normalized activity concentrations [% initial A/mL] (organs, tumors) or normalized activity amounts [% initial A] (total body, urinary bladder) were analyzed by non-linear regression using the 'One-phase decay', 'Plateau followed by one-phase decay', or 'Two-phase decay' models implemented in Prism 10 (GraphPad Software), with extrapolated y‑values approaching a lower limit constrained to 0. The normalized time-cumulated activity per milliliter of tissue [% initial A/mL × d] was calculated from areas under time-activity curves. For dose estimation in tumors and kidneys, these values were further converted into total time-cumulated organ activity per initial activity dose [MBq × h/MBq] using a realistic dosimetry model for 30‑g‑mice implemented in Olinda 2.2.3 (Hermes Medical Solutions AB, Stockholm, Sweden). The physical density of tissues was assumed to be 1 g/cm^3. The radionuclide-specific mean absorbed tissue dose DT [Gy] in tumors and kidneys was calculated using the sphere model in Olinda 2.2.3 (Hermes Medical Solutions AB).

[6] = Tissue pharmacokinetics by quantitative SPECT imaging in MPC allograft mice; settings: mouse, in vivo; for tissue uptake per volume at 1 h / tissue uptake per volume at 5 h / tissue uptake per volume at 72 h / tissue uptake per volume at 168 h / Heart (blood) concentration half-life eff. / Liver concentration half-life eff. / Total body contents half-life eff.: female; for tissue uptake per volume at 1 h / tissue uptake per volume at 5 h / tissue uptake per volume at 72 h / tissue uptake per volume at 168 h: Rj:NMRI-Foxn1^nu/nu nude, iv, 50 MBq, total radioactivity; for Heart (blood) concentration half-life eff. / Liver concentration half-life eff. / Total body contents half-life eff.: nude (Rj:NMRI-Foxn1^nu/nu)
Description: All animal experiments were carried out according to the guidelines of the German Regulations for Animal Welfare and have been approved by the local Ethical Committee for Animal Experiments. MPC cells (4 × 10^6) were injected subcutaneously into the shoulder of 10-14‑week‑old female nude mice (Rj:NMRI-Foxn1^nu/nu, Janvier Labs, Le Genest-Saint-Isle, France). Prior to treatment and imaging procedures, anesthesia was induced and maintained with inhalation of 10 % (v/v) desflurane in 30/10 % (v/v) oxygen/air. During anesthesia, animals were continuously warmed at 37 °C. Body weight was monitored three times per week and tumor diameters were measured using a caliper. Tumor volume was calculated assuming a tri‑axial ellipsoid with the diameters a, b, and c using the formula V = π/6 × a × b × c. For urine collection, animals were separated in clear conventional rodent boxes. After spontaneous micturition, voided urine was aspirated with a pipette tip, diluted 1:2 with ultrapure water and stored at -80 °C until further processing. For blood sampling, animals were placed in a restrainer and 50 µL of blood were collected from a lateral tail vein using a syringe needle rinsed with heparin. Blood samples were mixed with 4 µL of a 10 % (w/v) aqueous potassium-EDTA solution and kept at 4 °C until further processing. Animals were sacrificed using CO2 inhalation and cervical dislocation.
Tumor-bearing mice were treated with the SSTR2 radioligands at a single initial activity dose of 50 MBq delivered in 0.2 mL of 0.154 mol/L NaCl(aq) through injection into a tail vein (see Supporting information, Table S 1 for further details). Small-animal single-photon emission computed tomography (SPECT) was performed using the Mediso NanoScan® SPECT/CT (Mediso Medical Imaging Systems, Budapest, Hungary). […] With each SPECT scan, a corresponding CT image was recorded and used for anatomical referencing and attenuation correction. Details on image acquisition and reconstruction parameters are included in the Supporting information.
Regions of interest (ROIs) were generated using tissue-specific signal intensity thresholds. ROI-averaged activity concentrations in tissues [MBq/mL] were determined. Details on SPECT image resolution, image quantification tests, and tissue delineation are included in the Supporting information.
as §1
Method: Extraction of tissue -specific activity concentrations from SPECT/CT images Tissue-specific regions of interest (ROIs) were generated in ROVER 3.0.77h (ABX). Sphere masks were positioned to pre -select tissue -specific regions for delineation. ROIs were generated within the masks using tissue -specific threshold -based delineation (% of maximum voxel intensity within the given mask)

[7] = system: HEK293-SSTR2+ tumor xenografts; settings: within seven days, cited from earlier work
[8] = mouse, in vivo; cited from earlier work
NCI‑H69 xenografts = settings: mouse, in vivo; cited from earlier work
GOT‑1 xenografts = settings: mouse, in vivo; cited from earlier work
[9] = cited from earlier work; remark: listed apart in the source

C[C@@H](O)[C@H](NC(=O)[C@@H]1CSSC[C@H](NC(=O)[C@@H](Cc2ccccc2)NC(=O)CN2CCN(CC(=O)O)CCN(CC(=O)O)CCN(CC(=O)O)CC2)C(=O)N[C@@H](Cc2ccc(O)cc2)C(=O)N[C@H](Cc2c[nH]c3ccccc23)C(=O)N[C@@H](CCCCN)C(=O)N[C@@H]([C@@H](C)O)C(=O)N1)C(=O)O [[^68Ga]Ga‑DOTA-TATE, metal not drawn]
Uptake fraction (MPC cells [1]; listed as DOTA ^68Ga): 87 ± 1.9%

C[C@@H](O)[C@H](NC(=O)[C@@H]1CSSC[C@H](NC(=O)[C@@H](Cc2ccccc2)NC(=O)CCC(C(=O)O)N2CCN(CC(=O)O)CCN(CC(=O)O)CC2)C(=O)N[C@@H](Cc2ccc(O)cc2)C(=O)N[C@H](Cc2c[nH]c3ccccc23)C(=O)N[C@@H](CCCCN)C(=O)N[C@@H]([C@@H](C)O)C(=O)N1)C(=O)O (stereo partly drawn) [[^64Cu]Cu‑NODAGA-TATE, metal not drawn]
effective uptake lower compared to [177Lu]Lu-DOTA-TATE (MPC cells [1]; MPC cells): 77%
Uptake fraction (MPC cells [1]): 64 ± 4.1%
plasma half-life [2]: > 1440 min
24 h release (MPC cells [3]): 73 ± 1.9^ # %
Fast fraction (MPC cells [3]; 1 hour exposure): 42 ± 3.3%

C[C@@H](O)[C@H](NC(=O)[C@@H]1CSSC[C@H](NC(=O)[C@@H](Cc2ccccc2)NC(=O)CCC(C(=O)O)N2CCN(CC(=O)O)CCN(CC(=O)O)CC2)C(=O)N[C@@H](Cc2ccc(O)cc2)C(=O)N[C@H](Cc2c[nH]c3ccccc23)C(=O)N[C@@H](CCCCN)C(=O)N[C@@H]([C@@H](C)O)C(=O)N1)C(=O)O (stereo partly drawn) [[^67Cu]Cu‑NODAGA-TATE, metal not drawn]
extrapolated female blood effective half-life [4]: 52.8 min
DT, Kidneys (mean absorbed dose in kidneys) [5]: 2.42 ± 0.20 Gy
estimated absorbed dose in kidneys [5]: 2.42-2.81 Gy/50 MBq
tissue uptake per volume at 1 h ([6]; Heart): 0.35 ± 0.13 %ID/mL
tissue uptake per volume at 1 h ([6]; Kidneys): 6.69 ± 0.46 %ID/mL
tissue uptake per volume at 5 h ([6]; Kidneys): 3.87 ± 0.26 %ID/mL
tissue uptake per volume at 1 h ([6]; Liver): 0.63 ± 0.01 %ID/mL
tissue uptake per volume at 5 h ([6]; Liver): 0.57 ± 0.01 %ID/mL
tissue uptake per volume at 72 h ([6]; Liver): 0.15 ± 0.04 %ID/mL
tissue uptake per volume at 168 h ([6]; Liver): 0.03 ± 0.02 %ID/mL
tissue uptake per volume at 1 h ([6]; Tumor): 17.7 ± 1.83 %ID/mL
tissue uptake per volume at 5 h ([6]; Tumor): 13.5 ± 1.4 %ID/mL
tissue uptake per volume at 72 h ([6]; Tumor): 0.14 ± 0.01 %ID/mL
Heart (blood) concentration half-life eff. [6]: 7.8 min
Liver concentration half-life eff. [6]: 1210 ± 241 min
Total body contents half-life eff. [6]: 19.2 min

C[C@@H](O)[C@H](NC(=O)[C@@H]1CSSC[C@H](NC(=O)[C@@H](Cc2ccccc2)NC(=O)CN2CCN(CC(=O)O)CCN(CC(=O)O)CCN(CC(=O)O)CC2)C(=O)N[C@@H](Cc2ccc(O)cc2)C(=O)N[C@H](Cc2c[nH]c3ccccc23)C(=O)N[C@@H](CCCCN)C(=O)N[C@@H]([C@@H](C)O)C(=O)N1)C(=O)O [[^64Cu]Cu‑DOTA-TATE, metal not drawn]
Uptake fraction (MPC cells [1]; listed as DOTA ^64Cu): 61 ± 4.6%
release from tumor xenografts ([7]; reported, reference not given): 86%

C[C@@H](O)[C@H](NC(=O)[C@@H]1CSSC[C@H](NC(=O)[C@@H](Cc2ccccc2)NC(=O)CN2CCN(CC(=O)O)CCN(CC(=O)O)CCN(CC(=O)O)CC2)C(=O)N[C@@H](Cc2ccc(O)cc2)C(=O)N[C@H](Cc2c[nH]c3ccccc23)C(=O)N[C@@H](CCCCN)C(=O)N[C@@H]([C@@H](C)O)C(=O)N1)C(=O)O [[^177Lu]Lu‑DOTA-TATE, metal not drawn]
release from tumor xenografts [7]: 95%
threshold dose for proximal tubular damage, absorbed in renal cortex [8]: 24 Gy
absorbed tumor dose per administered activity (NCI‑H69 xenografts): 0.33-0.36 Gy/MBq
release from tumor xenografts (NCI‑H69 xenografts): 68−85%
total absorbed dose in tumors (NCI‑H69 xenografts): 10.0-10.2 Gy
absorbed tumor dose per administered activity (GOT‑1 xenografts): 0.27 Gy
release from tumor xenografts (GOT‑1 xenografts): 47%
total absorbed dose in tumors (GOT‑1 xenografts): 8.1 Gy
total absorbed kidney doses well tolerated without acute nephrotoxicity ([9]; clinical experience): up to 23 Gy
human effective dose in clinical dosimetry ([9]; human, in vivo): 0.069 mSv/MBq
extrapolated female blood effective half-life [4]: 49.8 min
DT, Kidneys (mean absorbed dose in kidneys) [5]: 2.81 ± 0.14 Gy
absorbed doses in MPC tumors [5]: 22.0-41.1 Gy
estimated absorbed dose in kidneys [5]: 2.42-2.81 Gy/50 MBq
highest absorbed dose in MPC tumors per administered activity [5]: 0.80-0.82 Gy/MBq
tissue uptake per volume at 1 h ([6]; Heart): 0.21 ± 0.18 %ID/mL
tissue uptake per volume at 1 h ([6]; Kidneys): 4.05 ± 0.01 %ID/mL
tissue uptake per volume at 5 h ([6]; Kidneys): 3.23 ± 0.04 %ID/mL
tissue uptake per volume at 72 h ([6]; Kidneys): 0.08 ± 0.01 %ID/mL
tissue uptake per volume at 1 h ([6]; Liver): 0.24 ± 0.04 %ID/mL
tissue uptake per volume at 72 h ([6]; Tumor): 6.79 ± 0.55 %ID/mL
tissue uptake per volume at 168 h ([6]; Tumor): 1.33 ± 0.11 %ID/mL
tissue uptake per volume at 1 h ([6]; 1 h, decay-corrected, Am 40 MBq/nmol, read-out: Tumor): 22.7 ± 1.84 %ID/mL
Heart (blood) concentration half-life eff. [6]: 7.8 min
Liver concentration half-life eff. [6]: 68.4 ± 1.2 min
Total body contents half-life eff. [6]: 15 min
release from MPC tumors [6]: 94%
